From publication PMC12334862
One block for each substance: values may come before it.

Columns and labels:
[1] = molecular target: His6-tagged rat gephyrin P1, wild type, high oligomers (GephHO) (rat); assay: SEC; as a1 with 1.5 nmol of the respective PIP (10 mol% in POPC) or POPC alone in DDM micelles added; SEC buffer with 0.01% DDM; height of the > 5 MDa void peak P1 at 280 nm
[2] = molecular target: His6-tagged rat gephyrin E-domain, wild type (WT-GephE) (rat); assay: mass photometry; Refeyn TwoMP; 5 nM final in 25 mM Tris/HCl pH 7.5, 150 mM NaCl, 5 mM β-mercaptoethanol, 1% glycerol; 60 s
[3] = molecular target: gephyrin from pig brain (pig (endogenous in pig brain tissue)); assay: native gel or EMSA; blue native PAGE (4%-16%) of the cytosol fraction of pig brain, western blot for gephyrin
[4] = molecular target: His6-tagged dimerization-deficient rat gephyrin variant (G483D, S505F), trimers (ddGephT) (rat); assay: SEC; single proteins: preparative Superdex 200 16/60 after Ni-NTA and analytical Superose 6 increase; molecular weights by comparison to standard proteins; oligomeric state of the protein with itself
[5] = molecular target: collybistin CB2SH3+ (Rattus norvegicus) (UniProt Q9QX73); assay: FRET; conditions: cited from earlier work
[6] = molecular target: His6-tagged rat gephyrin P1, wild type, high oligomers (GephHO) (rat); assay: SEC; single proteins: preparative Superdex 200 16/60 after Ni-NTA and analytical Superose 6 increase; molecular weights by comparison to standard proteins; oligomeric state of the protein with itself
[7] = molecular target: His6-tagged rat gephyrin P1, wild type, trimers (GephT) (rat); assay: as above

collybistin CB2SH3+ (Rattus norvegicus), sequence (Q9QX73 whole entry): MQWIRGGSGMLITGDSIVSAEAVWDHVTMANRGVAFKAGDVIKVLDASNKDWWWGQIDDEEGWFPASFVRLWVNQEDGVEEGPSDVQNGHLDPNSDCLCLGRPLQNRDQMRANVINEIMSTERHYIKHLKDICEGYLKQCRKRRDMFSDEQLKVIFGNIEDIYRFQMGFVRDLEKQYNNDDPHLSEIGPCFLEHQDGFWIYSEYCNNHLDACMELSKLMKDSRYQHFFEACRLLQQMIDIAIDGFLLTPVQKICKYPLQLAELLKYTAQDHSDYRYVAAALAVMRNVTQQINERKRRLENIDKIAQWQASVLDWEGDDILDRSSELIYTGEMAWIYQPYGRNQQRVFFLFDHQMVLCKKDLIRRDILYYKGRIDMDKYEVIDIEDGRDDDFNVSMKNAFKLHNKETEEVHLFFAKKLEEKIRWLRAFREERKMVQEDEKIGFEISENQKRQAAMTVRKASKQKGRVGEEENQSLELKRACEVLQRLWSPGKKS
gephyrin E-domain, sequence (Q03555 326-768): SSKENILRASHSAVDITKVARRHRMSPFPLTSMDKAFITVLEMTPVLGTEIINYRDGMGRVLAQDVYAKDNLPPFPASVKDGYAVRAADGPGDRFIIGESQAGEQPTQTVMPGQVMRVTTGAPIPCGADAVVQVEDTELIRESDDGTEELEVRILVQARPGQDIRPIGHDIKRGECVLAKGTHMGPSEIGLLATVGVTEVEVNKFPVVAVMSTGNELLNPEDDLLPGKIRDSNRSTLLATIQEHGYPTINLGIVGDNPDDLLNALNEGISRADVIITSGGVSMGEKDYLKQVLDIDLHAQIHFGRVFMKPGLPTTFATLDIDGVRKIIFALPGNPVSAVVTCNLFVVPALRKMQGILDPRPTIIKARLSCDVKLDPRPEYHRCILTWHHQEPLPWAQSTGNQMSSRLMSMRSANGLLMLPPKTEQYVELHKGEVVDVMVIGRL

Substance: His6-tagged rat gephyrin E-domain, wild type (WT-GephE) (domain or fragment)
stoichiometry N [2]: 2

Substance: gephyrin E-domain (from UniProt Q03555)
Kd [5]: 6.3 µM

Substance: His6-tagged rat gephyrin P1, wild type, high oligomers (GephHO) (natural protein)
stoichiometry N [6]: 12

Substance: His6-tagged rat gephyrin P1, wild type, trimers (GephT) (natural protein)
stoichiometry N [7]: 3

The remaining lines, values ahead:

P1 (> 5 MDa complex peak) absorption at 280 nm with PI(3,4)P2 [1]: 344 mAU | P1 (> 5 MDa complex peak) absorption at 280 nm with PI(3,4,5)P3 [1]: 378 mAU | P1 (> 5 MDa complex peak) absorption at 280 nm with PI(4,5)P2 [1]: 255 mAU | P1 (> 5 MDa complex peak) absorption at 280 nm with POPC [1]: 148 mAU | increase of the CB2SH3- band share within P1 with PI(3,4,5)P3 against the POPC control [1]: 22% | increase of the GephHO band share within P1 with PI(3,4,5)P3 against the POPC control [1]: 21%
Substance: His6-tagged rat collybistin isoform 2 lacking the SH3 domain (CB2_(SH3-)) (natural protein)

stoichiometry N [3]: 3
Substance: gephyrin from pig brain (natural protein)

stoichiometry N [4]: 3
Substance: His6-tagged dimerization-deficient rat gephyrin variant (G483D, S505F), trimers (ddGephT) (natural protein)
